# Data published in FireProtDB.
# “And” between values parts separate entries of the source, which are not always exact repeats. Equal entries are not always repeated.
# B1: Osteomodulin, Q99983 (parent)
# chain: MGFLSPIYVIFFFFGVKVHCQYETYQWDEDYDQEPDDDYQTGFPFRQNVDYGVPFHQYTLGCVSECFCPTNFPSSMYCDNRKLKTIPNIPMHIQQLYLQFNEIEAVTANSFINATHLKEINLSHNKIKSQKIDYGVFAKLPNLLQLHLEHNNLEEFPFPLPKSLERLLLGYNEISKLQTNAMDGLVNLTMLDLCYNYLHDSLLKDKIFAKMEKLMQLNLCSNRLESMPPGLPSSLMYLSLENNSISSIPEKYFDKLPKLHTLRMSHNKLQDIPYNIFNLPNIVELSVGHNKLKQAFYIPRNLEHLYLQNNEIEKMNLTVMCPSIDPLHYHHLTYIRVDQNKLKEPISSYIFFCFPHIHTIYYGEQRSTNGQTIQLKTQVFRRFPDDDDESEDHDDPDNAHESPEQEGAEGHFDLHYYENQE
# B2: Superoxide dismutase [Cu-Zn], P00445 (parent)
# chain: MVQAVAVLKGDAGVSGVVKFEQASESEPTTVSYEIAGNSPNAERGFHIHEFGDATNGCVSAGPHFNPFKKTHGAPTDEVRHVGDMGNVKTDENGVAKGSFKDSLIKLIGPTSVVGRSVVIHAGQDDLGKGDTEESLKTGNAGPRPACGVIGLTN
# B3: Triosephosphate isomerase, P00942 (parent)
# chain: MARTFFVGGNFKLNGSKQSIKEIVERLNTASIPENVEVVICPPATYLDYSVSLVKKPQVTVGAQNAYLKASGAFTGENSVDQIKDVGAKWVILGHSERRSYFHEDDKFIADKTKFALGQGVGVILCIGETLEEKKAGKTLDVVERQLNAVLEEVKDWTNVVVAYEPVWAIGTGLAATPEDAQDIHASIRKFLASKLGDKAASELRILYGGSANGSNAVTFKDKADVDGFLVGGASLKPEFVDIINSRN
# B4: Adenylate kinase, P16304 (parent)
# chain: MNLVLMGLPGAGKGTQGERIVEDYGIPHISTGDMFRAAMKEETPLGLEAKSYIDKGELVPDEVTIGIVKERLGKDDCERGFLLDGFPRTVAQAEALEEILEEYGKPIDYVINIEVDKDVLMERLTGRRICSVCGTTYHLVFNPPKTPGICDKDGGELYQRADDNEETVSKRLEVNMKQTQPLLDFYSEKGYLANVNGQQDIQDVYADVKDLLGGLKK
# B5: Tissue factor, P13726 (parent)
# chain: METPAWPRVPRPETAVARTLLLGWVFAQVAGASGTTNTVAAYNLTWKSTNFKTILEWEPKPVNQVYTVQISTKSGDWKSKCFYTTDTECDLTDEIVKDVKQTYLARVFSYPAGNVESTGSAGEPLYENSPEFTPYLETNLGQPTIQSFEQVGTKVNVTVEDERTLVRRNNTFLSLRDVFGKDLIYTLYYWKSSSSGKKTAKTNTNEFLIDVDKGENYCFSVQAVIPSRTVNRKSTDSPVECMGQEKGEFREIFYIIGAVVFVVIILVIILAISLHKCRKAGVGQSWKENSPLNVS
# B6: Collagen alpha-1(XVIII) chain, P39060 (parent)
# chain: MAPYPCGCHILLLLFCCLAAARANLLNLNWLWFNNEDTSHAATTIPEPQGPLPVQPTADTTTHVTPRNGSTEPATAPGSPEPPSELLEDGQDTPTSAESPDAPEENIAGVGAEILNVAKGIRSFVQLWNDTVPTESLARAETLVLETPVGPLALAGPSSTPQENGTTLWPSRGIPSSPGAHTTEAGTLPAPTPSPPSLGRPWAPLTGPSVPPPSSGRASLSSLLGGAPPWGSLQDPDSQGLSPAAAAPSQQLQRPDVRLRTPLLHPLVMGSLGKHAAPSAFSSGLPGALSQVAVTTLTRDSGAWVSHVANSVGPGLANNSALLGADPEAPAGRCLPLPPSLPVCGHLGISRFWLPNHLHHESGEQVRAGARAWGGLLQTHCHPFLAWFFCLLLVPPCGSVPPPAPPPCCQFCEALQDACWSRLGGGRLPVACASLPTQEDGYCVLIGPAAERISEEVGLLQLLGDPPPQQVTQTDDPDVGLAYVFGPDANSGQVARYHFPSLFFRDFSLLFHIRPATEGPGVLFAITDSAQAMVLLGVKLSGVQDGHQDISLLYTEPGAGQTHTAASFRLPAFVGQWTHLALSVAGGFVALYVDCEEFQRMPLARSSRGLELEPGAGLFVAQAGGADPDKFQGVIAELKVRRDPQVSPMHCLDEEGDDSDGASGDSGSGLGDARELLREETGAALKPRLPAPPPVTTPPLAGGSSTEDSRSEEVEEQTTVASLGAQTLPGSDSVSTWDGSVRTPGGRVKEGGLKGQKGEPGVPGPPGRAGPPGSPCLPGPPGLPCPVSPLGPAGPALQTVPGPQGPPGPPGRDGTPGRDGEPGDPGEDGKPGDTGPQGFPGTPGDVGPKGDKGDPGVGERGPPGPQGPPGPPGPSFRHDKLTFIDMEGSGFGGDLEALRGPRGFPGPPGPPGVPGLPGEPGRFGVNSSDVPGPAGLPGVPGREGPPGFPGLPGPPGPPGREGPPGRTGQKGSLGEAGAPGHKGSKGAPGPAGARGESGLAGAPGPAGPPGPPGPPGPPGPGLPAGFDDMEGSGGPFWSTARSADGPQGPPGLPGLKGDPGVPGLPGAKGEVGADGVPGFPGLPGREGIAGPQGPKGDRGSRGEKGDPGKDGVGQPGLPGPPGPPGPVVYVSEQDGSVLSVPGPEGRPGFAGFPGPAGPKGNLGSKGERGSPGPKGEKGEPGSIFSPDGGALGPAQKGAKGEPGFRGPPGPYGRPGYKGEIGFPGRPGRPGMNGLKGEKGEPGDASLGFGMRGMPGPPGPPGPPGPPGTPVYDSNVFAESSRPGPPGLPGNQGPPGPKGAKGEVGPPGPPGQFPFDFLQLEAEMKGEKGDRGDAGQKGERGEPGGGGFFGSSLPGPPGPPGPPGPRGYPGIPGPKGESIRGQPGPPGPQGPPGIGYEGRQGPPGPPGPPGPPSFPGPHRQTISVPGPPGPPGPPGPPGTMGASSGVRLWATRQAMLGQVHEVPEGWLIFVAEQEELYVRVQNGFRKVQLEARTPLPRGTDNEVAALQPPVVQLHDSNPYPRREHPHPTARPWRADDILASPPRLPEPQPYPGAPHHSSYVHLRPARPTSPPAHSHRDFQPVLHLVALNSPLSGGMRGIRGADFQCFQQARAVGLAGTFRAFLSSRLQDLYSIVRRADRAAVPIVNLKDELLFPSWEALFSGSEGPLKPGARIFSFDGKDVLRHPTWPQKSVWHGSDPNGRRLTESYCETWRTEAPSATGQASSLLGGRLLGQSAASCHHAYIVLCIENSFMTASK
# B7: Cyanovirin-N, P81180 (parent)
# chain: LGKFSQTCYNSAIQGSVLTSTCERTNGGYNTSSIDLNSVIENVDGSLKWQPSNFIETCRNTQLAGSSELAAECKTRAQQFVSTKINLDDHIANIDGTLKYE
# B8: Colicin-E1, P02978 (parent)
# chain: METAVAYYKDGVPYDDKGQVIITLLNGTPDGSGSGGGGGKGGSKSESSAAIHATAKWSTAQLKKTQAEQAARAKAAAEAQAKAKANRDALTQRLKDIVNEALRHNASRTPSATELAHANNAAMQAEDERLRLAKAEEKARKEAEAAEKAFQEAEQRRKEIEREKAETERQLKLAEAEEKRLAALSEEAKAVEIAQKKLSAAQSEVVKMDGEIKTLNSRLSSSIHARDAEMKTLAGKRNELAQASAKYKELDELVKKLSPRANDPLQNRPFFEATRRRVGAGKIREEKQKQVTASETRINRINADITQIQKAISQVSNNRNAGIARVHEAEENLKKAQNNLLNSQIKDAVDATVSFYQTLTEKYGEKYSKMAQELADKSKGKKIGNVNEALAAFEKYKDVLNKKFSKADRDAIFNALASVKYDDWAKHLDQFAKYLKITGHVSFGYDVVSDILKIKDTGDWKPLFLTLEKKAADAGVSYVVALLFSLLAGTTLGIWGIAIVTGILCSYIDKNKLNTINEVLGI
# B9: Thioredoxin, P80579 (parent)
# chain: ATMTLTDANFQQAIQGDKPVLVDFWAAWCGPCRMMAPVLEEFAEAHADKVTVAKLNVDENPETTSQFGIMSIPTLILFKGGRPVKQLIGYQPKEQLEAQLADVLQ
# Variants of: B1
# Settings: Homo sapiens; pH 7.4; Thermal; DSC; PBS; transition: 2; structure 5YQ5; whole UniProt chain shown
row,Variant,Tm [°C]
1,E303R,43.3
2,E173R,42.3
3,E284R,42.3
4,E225R,41.8
5,D254R,37
6,N278R,38.5

# Variants of: B2
# Settings: Saccharomyces cerevisiae (strain ATCC 204508 / S288c); Thermal; Fluorescence; structure 1JK9; whole UniProt chain shown
row,Variant,"change of melting temperature, mutant - wild type (higher = more stable) [°C]"
1,G94A,20

# Variants of: B3
# Settings: Saccharomyces cerevisiae (strain ATCC 204508 / S288c); pH 7.4; Thermal; CD; Tris 50 mM; reversible: No; structure 1YPI; whole UniProt chain shown
row,Variant,"change of melting temperature, mutant - wild type (higher = more stable) [°C]"
1,C126A,-11.2
2,C126S,-11.2

# Same assay, conditions: Saccharomyces cerevisiae (strain ATCC 204508 / S288c); pH 8.5; Thermal; CD; Tris 50 mM; reversible: No; structure 1YPI; whole UniProt chain shown
row,Variant,"change of melting temperature, mutant - wild type (higher = more stable) [°C]"
1,C126S,-13

# Variants of: B4
# Settings: Bacillus subtilis (strain 168); pH 7.4; Thermal; DSC; Hepes 50 mM; reversible: No; structure 2EU8; whole UniProt chain shown
row,Variant,"change of melting temperature, mutant - wild type (higher = more stable) [°C]"
1,L3I G17A D23K K69R G73S D75S I99S Y103M K105R E114Q D118E V119E M121I E122A S169T Q180A D184A S187D E188S G190E Y191V A193V Y205F D210V L211I K217Q,12.5
2,L3I G17A D23K K69R G73S D75S Y103M K105R E114Q D118E V119E S169T Q180A D184A S187D E188S G190E Y191V A193V Y205F D210V L211I K217Q,11.6
3,D23K Y103M E114Q S169T Q180A S187D A193V V208L D210V K217Q,5

# Variants of: B5
# Settings: Homo sapiens; pH 7.5; 23 °C; GdnHCl; Fluorescence; Tris-HCl 50 mM; reversible: yes; structure 1BOY; whole UniProt chain shown
Variant,ddG of mutation (higher = less stable) [kJ/mol],denaturant midpoint (higher = more stable) [M],unfolding free energy [kJ/mol]
R232W,-2.51,1.37,28.9

# Variants of: B6
# Settings: Homo sapiens; pH 7.4; 20 °C; GdnHCl; Fluorescence; Tris-HCl 5 mM; structure 1BNL; whole UniProt chain shown
Variant,denaturant m value,denaturant midpoint (higher = more stable) [M],unfolding free energy
D1647A,2.86 kcal/mol/M and 1.57 kcal/mol/M,1.79,21.4 kJ/mol and 11.8 kJ/mol

# Variants of: B7
# Settings: Nostoc ellipsosporum; pH 6; Thermal; CD; Sodium phosphate 10 mM; structure 1N02; whole UniProt chain shown
Variant,Tm [°C],"change of melting temperature, mutant - wild type (higher = more stable) [°C]"
P51G,50.2,1.7

# Variants of: B8
# Settings: Escherichia coli; pH 6; 22 °C; Urea; Fluorescence; dimethylglutaric acid 10 mM; NaCl 100 mM; reversible: yes; structure 2I88; whole UniProt chain shown
row,Variant,denaturant midpoint (higher = more stable) [M]
1,W424F W460F,5.3
2,F431W,5.8
3,F443W,5.5
4,W424F W495F,6.1
5,F355T,4.9
6,F484W,4.6
7,W460F W495F,6.1
8,F404W,4.8
9,Y507W,5.7
10,Y367W,4.9
11,F413W,5.7

# Variants of: B9
# Settings: Alicyclobacillus acidocaldarius subsp. acidocaldarius; pH 7; GdHCl; CD; Sodium phosphate 10 mM; reversible: yes; structure 1QUW; whole UniProt chain shown
row,Variant,denaturant midpoint (higher = more stable) [M]
1,D102X,2

# Same assay, conditions: Alicyclobacillus acidocaldarius subsp. acidocaldarius; pH 7; Urea; CD; Sodium phosphate 10 mM; reversible: yes; structure 1QUW; whole UniProt chain shown
row,Variant,denaturant midpoint (higher = more stable) [M]
1,D102X,4
